The data set has as its target alpha-synuclein (UniProt P37840 1-140). Kind of data set: interdigitated electrode current change (aptamer-GNP immobilized); 1 uM protein; titration 10 pM-1 uM, detection limit 10 pM (not a Kd); Aptamer-GNP on APTES-modified IDE, blocked with 1 M ethanolamine (30 min, RT); PBS listed as reagent, binding buffer, salt, pH and temperature not stated.

B1: antisynuclein aptamer (ssDNA)
DNA: ATAGTCCCATCATTCATTGTATGGTACGGCGCGGTGGCGGGTGCGTGGAGATATTAGCAAGTGTCA
For the molecule B1, the binding result is given as “binds”.
